B1: GpH7-A5/GpH7-B3 variant K334_01G/GpL16-k0 (antibody, human IgG1, kappa)
heavy 1: not shown
heavy 2: not shown
light: DIVMTQSPLSLPVTPGEPASISCQASESLVHSNRNTYLHWYLQKPGQSPQLLIYKVSNRFSGVPDRFSGSGSGTDFTLKISRVEAEDVGVYYCSQNTHVPPTFGQGTKVEIERTVAAPSVFIFPPSDEQLKSGTASVVCLLNNFYPREAKVQWKVDNALQSGNSQESVTEQDSKDSTYSLSSTLTLSKADYEKHKVYACEVTHQGLSSPVTKSFNRGEC
notes: heterodimerized IgG1, mutation in one H chain only; also called He Ab
B2: GpH7-A5/GpH7-B3 variant K326_19Q/GpL16-k0 (antibody, human IgG1, kappa)
heavy 1: not shown
heavy 2: not shown
light: B1 light
notes: as for B1
B3: GpH7-A5/GpH7-B3 variant K334_13S/GpL16-k0 (antibody, human IgG1, kappa)
heavy 1: not shown
heavy 2: not shown
light: B1 light
notes: as for B1
B4: GpH7-A5/GpH7-B3 variant I332_09D/GpL16-k0 (antibody, human IgG1, kappa)
heavy 1: not shown
heavy 2: not shown
light: B1 light
notes: as for B1
B5: GpH7-A5/GpH7-B3 variant I336_09D/GpL16-k0 (antibody, human IgG1, kappa)
heavy 1: not shown
heavy 2: not shown
light: B1 light
notes: as for B1
B6: GpH7-A5/GpH7-B3 variant S267_09D/GpL16-k0 (antibody, human IgG1, kappa)
heavy 1: not shown
heavy 2: not shown
light: B1 light
notes: as for B1
B7: GpH7-A5/GpH7-B3 variant I332_13S/GpL16-k0 (antibody, human IgG1, kappa)
heavy 1: not shown
heavy 2: not shown
light: B1 light
notes: as for B1
B8: GpH7-A5/GpH7-B3 variant K334_19Q/GpL16-k0 (antibody, human IgG1, kappa)
heavy 1: not shown
heavy 2: not shown
light: B1 light
notes: as for B1
B9: GpH7-A5/GpH7-B3 variant Q295_02A/GpL16-k0 (antibody, human IgG1, kappa)
heavy 1: not shown
heavy 2: not shown
light: B1 light
notes: as for B1
B10: GpH7-A5/GpH7-B3 variant K334_02A/GpL16-k0 (antibody, human IgG1, kappa)
heavy 1: not shown
heavy 2: not shown
light: B1 light
notes: as for B1
B11: GpH7-A5/GpH7-B3 variant I336_02A/GpL16-k0 (antibody, human IgG1, kappa)
heavy 1: not shown
heavy 2: not shown
light: B1 light
notes: as for B1
B12: GpH7-A5/GpH7-B3 variant K326_07I/GpL16-k0 (antibody, human IgG1, kappa)
heavy 1: not shown
heavy 2: not shown
light: B1 light
notes: as for B1
B13: GpH7-A5/GpH7-B3 variant A330_08L/GpL16-k0 (antibody, human IgG1, kappa)
heavy 1: not shown
heavy 2: not shown
light: B1 light
notes: as for B1
B14: GpH7-A5/GpH7-B3 variant K334_16H/GpL16-k0 (antibody, human IgG1, kappa)
heavy 1: not shown
heavy 2: not shown
light: B1 light
notes: as for B1
B15: GpH7-A5/GpH7-B3 variant Q295_14T/GpL16-k0 (antibody, human IgG1, kappa)
heavy 1: not shown
heavy 2: not shown
light: B1 light
notes: as for B1
B16: GpH7-A5/GpH7-B3 variant I336_06M/GpL16-k0 (antibody, human IgG1, kappa)
heavy 1: not shown
heavy 2: not shown
light: B1 light
notes: as for B1
B17: GpH7-A5/GpH7-B3 variant I336_13S/GpL16-k0 (antibody, human IgG1, kappa)
heavy 1: not shown
heavy 2: not shown
light: B1 light
notes: as for B1
B18: GpH7-A5/GpH7-B3 variant K334_05P/GpL16-k0 (antibody, human IgG1, kappa)
heavy 1: not shown
heavy 2: not shown
light: B1 light
notes: as for B1
B19: GpH7-A5/GpH7-B3 variant K334_08L/GpL16-k0 (antibody, human IgG1, kappa)
heavy 1: not shown
heavy 2: not shown
light: B1 light
notes: as for B1
B20: GpH7-A5/GpH7-B3 variant K334_04F/GpL16-k0 (antibody, human IgG1, kappa)
heavy 1: not shown
heavy 2: not shown
light: B1 light
notes: as for B1
B21: GpH7-A5/GpH7-B3 variant K326_14T/GpL16-k0 (antibody, human IgG1, kappa)
heavy 1: not shown
heavy 2: not shown
light: B1 light
notes: as for B1
B22: GpH7-A5/GpH7-B3 variant K334_10E/GpL16-k0 (antibody, human IgG1, kappa)
heavy 1: not shown
heavy 2: not shown
light: B1 light
notes: as for B1
B23: GpH7-A5/GpH7-B3 variant K326_08L/GpL16-k0 (antibody, human IgG1, kappa)
heavy 1: not shown
heavy 2: not shown
light: B1 light
notes: as for B1
B24: GpH7-A5/GpH7-B3 variant I332_14T/GpL16-k0 (antibody, human IgG1, kappa)
heavy 1: not shown
heavy 2: not shown
light: B1 light
notes: as for B1
B25: GpH7-A5/GpH7-B3 variant I332_15Y/GpL16-k0 (antibody, human IgG1, kappa)
heavy 1: not shown
heavy 2: not shown
light: B1 light
notes: as for B1
B26: GpH7-A5/GpH7-B3 variant I332_19Q/GpL16-k0 (antibody, human IgG1, kappa)
heavy 1: not shown
heavy 2: not shown
light: B1 light
notes: as for B1
B27: GpH7-A5/GpH7-B3 variant K334_09D/GpL16-k0 (antibody, human IgG1, kappa)
heavy 1: not shown
heavy 2: not shown
light: B1 light
notes: as for B1
B28: GpH7-A5/GpH7-B3 variant K326_06M/GpL16-k0 (antibody, human IgG1, kappa)
heavy 1: not shown
heavy 2: not shown
light: B1 light
notes: as for B1
B29: GpH7-A5/GpH7-B3 variant I336_10E/GpL16-k0 (antibody, human IgG1, kappa)
heavy 1: not shown
heavy 2: not shown
light: B1 light
notes: as for B1
B30: GpH7-A5/GpH7-B3 variant A330_20W/GpL16-k0 (antibody, human IgG1, kappa)
heavy 1: not shown
heavy 2: not shown
light: B1 light
notes: as for B1

These binders were tested against T1, FcγRIIIa extracellular domain with C-terminal His tag (human, UniProt P08637 17-208) (assay: SPR, relative to GpH7-A5/GpH7-B3/GpL16-k0).
T1 construct: extracellular domain; also called FcgRIIIa; 3a
T1 sequence (P08637 17-208): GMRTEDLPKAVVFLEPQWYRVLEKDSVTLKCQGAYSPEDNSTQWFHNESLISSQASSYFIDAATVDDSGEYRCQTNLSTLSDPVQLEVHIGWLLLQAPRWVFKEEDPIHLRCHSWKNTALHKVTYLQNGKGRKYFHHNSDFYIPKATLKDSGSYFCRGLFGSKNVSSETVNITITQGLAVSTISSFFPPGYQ

He/Con_3a	Binder
121 % of control (=100)	B1
106 % of control (=100)	B2
145 % of control (=100)	B3
207 % of control (=100)	B4
106 % of control (=100)	B5
181 % of control (=100)	B6
104 % of control (=100)	B7
136 % of control (=100)	B8
106 % of control (=100)	B9
147 % of control (=100)	B10
111 % of control (=100)	B11
139 % of control (=100)	B12
124 % of control (=100)	B13
134 % of control (=100)	B14
115 % of control (=100)	B15
109 % of control (=100)	B16
102 % of control (=100)	B17
134 % of control (=100)	B18
143 % of control (=100)	B19
148 % of control (=100)	B20
126 % of control (=100)	B21
181 % of control (=100)	B22
114 % of control (=100)	B23
120 % of control (=100)	B24
101 % of control (=100)	B25
110 % of control (=100)	B26
160 % of control (=100)	B27
115 % of control (=100)	B28
119 % of control (=100)	B29
104 % of control (=100)	B30

Source: patent US20180155451A1 (published 2018)
